This is an account of results in patent publication US20210198647.

The test system of series [1] is NlnA#1, NSC 374121, L-histidyl-L-tyrosine.
For series [2], the system named is NlnA#2, NSC 523374, D,L-histidyl-D,L-histidine.

mouse brain-purified neurolysin: the “Emax, QFS (25 µM) hydrolysis” value in series [1] is given as 190% (95% confidence intervals 169.2 to 210.7%); in series [2] it was 258% (95% confidence intervals 232.7 to 283.8%).

In the case of “recombinant human neurolysin (R & D systems, product number 3814-ZN)”, the figures for the “Emax, QFS (25 µM) hydrolysis” value in series [1] and in series [2] were 203.5% (95% confidence intervals 193.7 to 213.4%) and 214.3% (95% confidence intervals 205.7 to 222.9%), respectively.
